In article PMC7954794, “Protein context shapes the specificity of SH3 domain-mediated interactions in vivo” (Nature Communications, 2021):

Tested on: growth of yeast strains under 51 stress conditions
Experiment: Growth assays in 51 stress conditions (Fig. 1E-F, S2D, S5B)
Format: cell-based, Saccharomyces cerevisiae
Parameters: Sla1 strains growth distance: scale not given here
Conditions: 51 stress conditions, Fig S5B
Procedure, shortened: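 Colony sizes at 74 h on 51 stress media (37 °C) were log2 transformed, corrected for plate effects, and averaged across two plates as per-plate medians (growth score). Strains arrayed in 12 replicates with WT border, grown first on YPD for two days at 30 °C.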

B1: WT¦WT¦WT (protein, UniProt P32790 1-1244, looked up)
Actin cytoskeleton-regulatory …: MTVFLGIYRAVYAYEPQTPEELAIQEDDLLYLLQKSDIDDWWTVKKRVIGSDSEEPVGLVPSTYIEEAPVLKKVRAIYDYEQVQNADEELTFHENDVFDVFDDKDADWLLVKSTVSNEFGFIPGNYVEPENGSTSKQEQAPAAAEAPAATPAAAPASAAVLPTNFLPPPQHNDRARMMQSKEDQAPDEDEEGPPPAMPARPTATTETTDATAAAVRSRTRLSYSDNDNDDEEDDYYYNSNSNNVGNHEYNTEYHSWNVTEIEGRKKKKAKLSIGNNKINFIPQKGTPHEWSIDKLVSYDNEKKHMFLEFVDPYRSLELHTGNTTTCEEIMNIIGEYKGASRDPGLREVEMASKSKKRGIVQYDFMAESQDELTIKSGDKVYILDDKKSKDWWMCQLVDSGKSGLVPAQFIEPVRDKKHTESTASGIIKSIKKNFTKSPSRSRSRSRSKSNANASWKDDELQNDVVGSAAGKRSRKSSLSSHKKNSSATKDFPNPKKSRLWVDRSGTFKVDAEFIGCAKGKIHLHKANGVKIAVAADKLSNEDLAYVEKITGFSLEKFKANDGSSSRGTDSRDSERERRRRLKEQEEKERDRRLKERELYELKKARELLDEERSRLQEKELPPIKPPRPTSTTSVPNTTSVPPAESSNNNNSSNKYDWFEFFLNCGVDVSNCQRYTINFDREQLTEDMMPDINNSMLRTLGLREGDIVRVMKHLDKKFGRENIASIPTNATGNMFSQPDGSLNVATSPETSLPQQLLPQTTSPAQTAPSTSAETDDAWTVKPASKSESNLLSKKSEFTGSMQDLLDLQPLEPKKAAASTPEPNLKDLEPVKTGGTTVPAAPVSSAPVSSAPAPLDPFKTGGNNILPLSTGFVMMPMITGGDMLPMQRTGGFVVPQTTFGMQSQVTGGILPVQKTGNGLIPISNTGGAMMPQTTFGAAATVLPLQKTGGGLIPIATTGGAQFPQTSFNVQGQQQLPTGSILPVQKTANGLISANTGVSMPTVQRTGGTMIPQTSFGVSQQLTGGAMMTQPQNTGSAMMPQTSFNAVPQITGGAMMPQTSFNALPQVTGGAMMPLQRTGGALNTFNTGGAMIPQTSFSSQAQNTGGFRPQSQFGLTLQKTGGIAPLNQNQFTGGAMNTLSTGGVLQQQQPQTMNTFNTGGVMQELQMMTTFNTGGAMQQPQMMNTFNTDGIMQQPQMMNTFNTGGAMQQPQQQALQNQPTGFGFGNGPQQSRQANIFNATASNPFGF
Sla1 strains growth distance (distance to ABP1¦WT¦WT): 32.7633
Sla1 strains growth distance (distance to ABP1¦WT¦WT, listed as WT¦WT¦WT*): 32.7344
Sla1 strains growth distance (distance to D¦D¦D): 13.1994
Sla1 strains growth distance (distance to D¦D¦D, listed as WT¦WT¦WT*): 13.2336
Sla1 strains growth distance (distance to D¦WT¦D): 4.481
Sla1 strains growth distance (distance to D¦WT¦D, listed as WT¦WT¦WT*): 4.3276
Sla1 strains growth distance (distance to D¦WT¦SH3-1): 9.537
Sla1 strains growth distance (distance to D¦WT¦SH3-1, listed as WT¦WT¦WT*): 9.613
Sla1 strains growth distance (distance to D¦WT¦SH3-2): 5.1186
Sla1 strains growth distance (distance to D¦WT¦SH3-2, listed as WT¦WT¦WT*): 4.955
Sla1 strains growth distance (distance to D¦WT¦WT): 4.59
Sla1 strains growth distance (distance to D¦WT¦WT, listed as WT¦WT¦WT*): 4.434
Sla1 strains growth distance (distance to SH3-2¦SH3-1¦WT): 7.002
Sla1 strains growth distance (distance to SH3-2¦SH3-1¦WT, listed as WT¦WT¦WT*): 6.862
Sla1 strains growth distance (distance to SH3-2¦WT¦D): 9.252
Sla1 strains growth distance (distance to SH3-2¦WT¦D, listed as WT¦WT¦WT*): 9.12
Sla1 strains growth distance (distance to SH3-2¦WT¦WT): 2.328
Sla1 strains growth distance (distance to SH3-2¦WT¦WT, listed as WT¦WT¦WT*): 2.435
Sla1 strains growth distance (distance to SH3-3¦SH3-1¦D): 3.781
Sla1 strains growth distance (distance to SH3-3¦SH3-1¦D, listed as WT¦WT¦WT*): 3.648
Sla1 strains growth distance (distance to SH3-3¦SH3-1¦SH3-2): 4.4511
Sla1 strains growth distance (distance to SH3-3¦SH3-1¦SH3-2, listed as WT¦WT¦WT*): 4.2977
Sla1 strains growth distance (distance to SH3-3¦WT¦D): 11.8089
Sla1 strains growth distance (distance to SH3-3¦WT¦D, listed as WT¦WT¦WT*): 11.8591
Sla1 strains growth distance (distance to SH3-3¦WT¦SH3-1): 11.5081
Sla1 strains growth distance (distance to SH3-3¦WT¦SH3-1, listed as WT¦WT¦WT*): 11.5693
Sla1 strains growth distance (distance to SH3-3¦WT¦WT): 11.7278
Sla1 strains growth distance (distance to SH3-3¦WT¦WT, listed as WT¦WT¦WT*): 11.7806
Sla1 strains growth distance (distance to WT*¦WT¦WT): 0.6236
Sla1 strains growth distance (distance to WT*¦WT¦WT, listed as WT¦WT¦WT*): 0.5854
Sla1 strains growth distance (distance to WT¦ABP1¦WT): 11.3779
Sla1 strains growth distance (distance to WT¦ABP1¦WT, listed as WT¦WT¦WT*): 11.4192
Sla1 strains growth distance (distance to WT¦D¦D): 4.458
Sla1 strains growth distance (distance to WT¦D¦D, listed as WT¦WT¦WT*): 4.315
Sla1 strains growth distance (distance to WT¦D¦SH3-2): 5.097
Sla1 strains growth distance (distance to WT¦D¦SH3-2, listed as WT¦WT¦WT*): 4.943
Sla1 strains growth distance (distance to WT¦D¦WT): 5.311
Sla1 strains growth distance (distance to WT¦D¦WT, listed as WT¦WT¦WT*): 5.149
Sla1 strains growth distance (distance to WT¦SH3-1¦D): 0.4704
Sla1 strains growth distance (distance to WT¦SH3-1¦D, listed as WT¦WT¦WT*): 0.4379
Sla1 strains growth distance (distance to WT¦SH3-1¦WT): 0.4878
Sla1 strains growth distance (distance to WT¦SH3-1¦WT, listed as WT¦WT¦WT*): 0.5418
Sla1 strains growth distance (distance to WT¦SH3-3¦D): 5.1001
Sla1 strains growth distance (distance to WT¦SH3-3¦D, listed as WT¦WT¦WT*): 4.947
Sla1 strains growth distance (distance to WT¦SH3-3¦SH3-2): 5.331
Sla1 strains growth distance (distance to WT¦SH3-3¦SH3-2, listed as WT¦WT¦WT*): 5.179
Sla1 strains growth distance (distance to WT¦SH3-3¦WT): 4.703
Sla1 strains growth distance (distance to WT¦SH3-3¦WT, listed as WT¦WT¦WT*): 4.556
Sla1 strains growth distance (distance to WT¦WT*¦WT): 0.917
Sla1 strains growth distance (distance to WT¦WT*¦WT, listed as WT¦WT¦WT*): 0.7508
Sla1 strains growth distance (distance to WT¦WT¦ABP1): 1.932
Sla1 strains growth distance (distance to WT¦WT¦ABP1, listed as WT¦WT¦WT*): 1.926
Sla1 strains growth distance (distance to WT¦WT¦D): 0.5681
Sla1 strains growth distance (distance to WT¦WT¦D, listed as WT¦WT¦WT*): 0.4359
Sla1 strains growth distance (distance to WT¦WT¦SH3-1): 0.5772
Sla1 strains growth distance (distance to WT¦WT¦SH3-1, listed as WT¦WT¦WT*): 0.4107
Sla1 strains growth distance (distance to WT¦WT¦SH3-2): 0.55
Sla1 strains growth distance (distance to WT¦WT¦SH3-2, listed as WT¦WT¦WT*): 0.3776
Sla1 strains growth distance (distance to WT¦WT¦WT*): 0.496
Sla1 strains growth distance (distance to WT¦WT¦WT*, listed as WT¦WT¦WT*): 0
Sla1 strains growth distance (distance to WT¦WT¦WT): 0
Sla1 strains growth distance (distance to WT¦WT¦WT, listed as WT¦WT¦WT*): 0.496
